In ChEMBL document CHEMBL1140886, “Development of an optimized activatable MMP-14 targeted SPECT imaging probe” (Bioorg Med Chem, 2009) one finds kcat/Km data, which are given here for one protein.

Substrate in the data set: CC[C@H](C)[C@H](NC(=O)[C@H](CCCNC(=N)N)NC(=O)CNC(=O)[C@@H](N)CO)C(=O)NCC(=O)N[C@@H](Cc1ccccc1)C(=O)N[C@@H](CC(C)C)C(=O)N[C@@H](CCCNC(=N)N)C(=O)N[C@H](C(=O)N[C@@H](C)C(=O)O)[C@@H](C)O
As to the kind of experiment: Ratio of kcat/km for MMP9 assessed as drug cleavage.

B1: Matrix metalloproteinase-9 (Homo sapiens), P14780 (protein)
chain: MSLWQPLVLVLLVLGCCFAAPRQRQSTLVLFPGDLRTNLTDRQLAEEYLYRYGYTRVAEMRGESKSLGPALLLLQKQLSLPETGELDSATLKAMRTPRCGVPDLGRFQTFEGDLKWHHHNITYWIQNYSEDLPRAVIDDAFARAFALWSAVTPLTFTRVYSRDADIVIQFGVAEHGDGYPFDGKDGLLAHAFPPGPGIQGDAHFDDDELWSLGKGVVVPTRFGNADGAACHFPFIFEGRSYSACTTDGRSDGLPWCSTTANYDTDDRFGFCPSERLYTQDGNADGKPCQFPFIFQGQSYSACTTDGRSDGYRWCATTANYDRDKLFGFCPTRADSTVMGGNSAGELCVFPFTFLGKEYSTCTSEGRGDGRLWCATTSNFDSDKKWGFCPDQGYSLFLVAAHEFGHALGLDHSSVPEALMYPMYRFTEGPPLHKDDVNGIRHLYGPRPEPEPRPPTTTTPQPTAPPTVCPTGPPTVHPSERPTAGPTGPPSAGPTGPPTAGPSTATTVPLSPVDDACNVNIFDAIAEIGNQLYLFKDGKYWRFSEGRGSRPQGPFLIADKWPALPRKLDSVFEERLSKKLFFFSGRQVWVYTGASVLGPRRLDKLGLGADVAQVTGALRSGRGKMLLFSGRRLWRFDVKAQMVDPRSASEVDRMFPGVPLDTHDVFQYREKAYFCQDRFYWRVSSRSELNQVDQVGYVTYDILQCPED
The kcat/Km is the second-order rate constant that governs catalysis at low substrate concentration. For the protein B1, the catalytic efficiency (kcat/Km) was 20000 M⁻¹ s⁻¹.
